For experiment [1], the target named is T1, HA-α-SNAP M105I (hyh mutant) (human, UniProt P54920 1-295, M105I).
T1 sequence: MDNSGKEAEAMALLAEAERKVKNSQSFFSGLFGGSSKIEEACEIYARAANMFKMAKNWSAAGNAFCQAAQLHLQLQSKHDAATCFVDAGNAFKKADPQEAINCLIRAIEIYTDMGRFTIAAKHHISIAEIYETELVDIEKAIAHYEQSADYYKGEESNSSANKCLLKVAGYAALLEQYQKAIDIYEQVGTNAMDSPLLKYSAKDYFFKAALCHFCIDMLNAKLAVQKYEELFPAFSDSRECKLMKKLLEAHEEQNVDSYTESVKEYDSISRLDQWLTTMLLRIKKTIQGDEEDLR
Description: co-IP.

The target in experiment [2] is FLAG-tagged AMPK-γ1 (wild type) (UniProt P54619 1-331). The experiment is described as follows: pull-down.
Chain of FLAG-tagged AMPK-γ1 (wild type) (P54619 whole entry): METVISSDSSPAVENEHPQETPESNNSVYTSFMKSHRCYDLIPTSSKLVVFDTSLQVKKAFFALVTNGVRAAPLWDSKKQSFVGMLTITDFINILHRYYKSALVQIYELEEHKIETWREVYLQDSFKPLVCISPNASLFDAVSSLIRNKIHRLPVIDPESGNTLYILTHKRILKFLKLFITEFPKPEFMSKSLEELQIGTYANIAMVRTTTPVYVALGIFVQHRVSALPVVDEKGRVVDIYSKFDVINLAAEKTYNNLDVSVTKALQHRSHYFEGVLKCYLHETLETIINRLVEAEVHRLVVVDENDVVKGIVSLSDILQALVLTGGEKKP

B1: FLAG-AMPKα2 (natural protein)
chain: MAEKQKHDGRVKIGHYVLGDTLGVGTFGKVKIGEHQLTGHKVAVKILNRQKIRSLDVVGKIKREIQNLKLFRHPHIIKLYQVISTPTDFFMVMEYVSGGELFDYICKHGRVEEMEARRLFQQILSAVDYCHRHMVVHRDLKPENVLLDAHMNAKIADFGLSNMMSDGEFLRTSCGSPNYAAPEVISGRLYAGPEVDIWSCGVILYALLCGTLPFDDEHVPTLFKKIRGGVFYIPEYLNRSVATLLMHMLQVDPLKRATIKDIREHEWFKQDLPSYLFPEDPSYDANVIDDEAVKEVCEKFECTESEVMNSLYSGDPQDQLAVAYHLIIDNRRIMNQASEFYLASSPPSGSFMDDSAMHIPPGLKPHPERMPPLIADSPKARCPLDALNTTKPKSLAVKKAKWHLGIRSQSKPYDIMAEVYRAMKQLDFEWKVVNAYHLRVRRKNPVTGNYVKMSLQLYLVDNRSYLLDFKSIDDEVVEQRSGSSTPQRSCSAAGLHRPRSSFDSTTAESHSLSGSLTGSLTGSTLSSVSPRLGSHTMDFFEMCASLITTLAR
B1: in experiment [1], the “fold increase in co-immunoprecipitation against WT α-SNAP” value is approximately 2 fold.

B2: purified recombinant α-SNAP (His-tagged, wild type) (natural protein)
chain: MDNSGKEAEAMALLAEAERKVKNSQSFFSGLFGGSSKIEEACEIYARAANMFKMAKNWSAAGNAFCQAAQLHLQLQSKHDAATCFVDAGNAFKKADPQEAINCLMRAIEIYTDMGRFTIAAKHHISIAEIYETELVDIEKAIAHYEQSADYYKGEESNSSANKCLLKVAGYAALLEQYQKAIDIYEQVGTNAMDSPLLKYSAKDYFFKAALCHFCIDMLNAKLAVQKYEELFPAFSDSRECKLMKKLLEAHEEQNVDSYTESVKEYDSISRLDQWLTTMLLRIKKTIQGDEEDLR
As to B2, the “fold increase in binding with ATP against no nucleotide” value in experiment [2] stood at 2 fold.

Source of the values: paper PMC3595137 (Nature communications, 2013).
